Experimental data taken from patent publication US6465423 (CENTRAL SYDNEY AREA HEALTH SERVICE, dated 2002).

B1: 28K IGF-binding protein BP-28 (other, human, UniProt P08833 26-259, looked up)
chain: APWQCAPCSAEKLALCPPVSASCSEVTRSAGCGCCPMCALPLGAACGVATARCARGLSCRALPGEQQPLHALTRGQGACVQESDASAPHAAEAGSPESPESTEITEEELLDNFHLMAPSEEDHSILWDAISTYDGSKALHVTNIKKWKEPCRIELYRVVESLAKAQETSGEEISKFYLPNCNKNGFYHSRQCETSMDGEAGLCWCVYPWNGKRIPGSPEIRGDPNCQIYFNVQN
notes: mature; also called purified amniotic fluid BP-28
B2: acid-labile sub-unit (ALS) of insulin like growth factor binding protein complex (other, human, UniProt P35858 28-605, looked up)
chain: ADPGTPGEAEGPACPAACVCSYDDDADELSVFCSSRNLTRLPDGVPGGTQALWLDGNNLSSVPPAAFQNLSSLGFLNLQGGQLGSLEPQALLGLENLCHLHLERNQLRSLALGTFAHTPALASLGLSNNRLSRLEDGLFEGLGSLWDLNLGWNSLAVLPDAAFRGLGSLRELVLAGNRLAYLQPALFSGLAELRELDLSRNALRAIKANVFVQLPRLQKLYLDRNLIAAVAPGAFLGLKALRWLDLSHNRVAGLLEDTFPGLLGLRVLRLSHNAIASLRPRTFKDLHFLEELQLGHNRIRQLAERSFEGLGQLEVLTLDHNQLQEVKAGAFLGLTNVAVMNLSGNCLRNLPEQVFRGLGKLHSLHLEGSCLGRIRPHTFTGLSGLRRLFLKDNGLVGIEEQSLWGLAELLELDLTSNQLTHLPHRLFQGLGKLEYLLLSRNRLAELPADALGPLQRAFWLDVSHNRLEALPNSLLAPLGRLRYLSLRNNSLRTFTPQPPGLERLWLEGNPWDCGCPLKALRDFALQNPSAVPRFVQAICEGDDCQPPAYTYNNITCASPPEVVGLDLRDLSEAHFAPC
modifications: glycoprotein (N-linked carbohydrate); 125I-iodinated (chloramine-T) where used as tracer
notes: mature; 84/86 kDa doublet on SDS-PAGE; In some experiments partially pure ALS or serum fractions (peak B) were used; also called ALS tracer

Experiments:
[1] = biological target: B2; assay: competition with cross-linked BP-53-IGF-I tracer in the routine ALS assay
Method: (§1) Samples to be tested for ALS activity were diluted to 200 μL in buffer containing 50 mmol/L sodium phosphate, 0.15 mol/L NaCl, and 0.2 g/L sodium azide, pH 6.5, with 10 g/L bovine albumin. Cross-linked BP-53-IGF-I tracer (~80,000 cpm; 4 ng) was added in 50 μL of the same buffer. After 25–30 min. of incubation at 22° C., 200 μL of the mixture was applied using a V-7 injector valve (Pharmacia) to a Superose-12 gel permeation column eluting at 1.0 mL/min (~2 megapascal pressure) in assay buffer without albumin. The column was calibrated with rabbit immunoglobulin G (Pentex; ~150K), which eluted mainly in fractions 22~24, peaking in fraction 23; BP-53-IGF-I tracer (~60K), which eluted mainly in fractions 25–27, peaking in fraction 26; IGF-I tracer bound to BP-28 (~35K, peaking in fraction 28); and IGF-I tracer (7.5K, peaking in fraction 33). Plotted as log (molecular mass) vs. elution volume, these four markers yielded a linear calibration curve (not shown). As a quantitative index of ALS activity (i.e. the degree of conversion of BP-53 to the 150K complex), the total radioactivity in fractions 22–24 was divided by that in fractions 25–27 to give a 150K/60K ratio. The values of this ratio typically varied between 0.1 and 2.0. The coefficient of variation of the 150K/60K ratio, based on analysis of variance of eight duplicate measurements covering a wide range of values, was 3.2%. […]

[2] = biological target: T1, Cross-linked BP-53-IGF-I tracer (covalent complex of BP-53 with [125I]IGF-I) (human, UniProt P17936 28-291; P05019 49-118, 125I-iodinated; cross-linked to BP-53 with disuccinimidyl suberate; glycoprotein; cross-linked to IGF-I with disuccinimidyl suberate); assay: routine ALS assay, Superose-12, no serum added
T1 construct: mature; About 60K; Used as tracer in the routine ALS assay; also called covalent BP-53-IGF-I complex; cross-linked tracer
T1 sequence (P17936 28-291, chain 1 of 2): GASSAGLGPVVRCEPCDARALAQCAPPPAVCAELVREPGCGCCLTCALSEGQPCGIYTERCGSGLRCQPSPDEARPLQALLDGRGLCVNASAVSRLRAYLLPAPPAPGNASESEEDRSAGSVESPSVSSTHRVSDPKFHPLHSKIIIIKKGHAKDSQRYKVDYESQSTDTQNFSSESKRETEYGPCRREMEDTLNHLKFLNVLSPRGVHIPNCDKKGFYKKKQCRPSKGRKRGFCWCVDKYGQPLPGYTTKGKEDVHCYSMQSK
T1 sequence (P05019 49-118, chain 2 of 2): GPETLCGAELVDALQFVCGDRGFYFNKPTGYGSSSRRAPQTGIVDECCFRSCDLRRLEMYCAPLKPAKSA
Method: The routine assay for ALS activity was developed, based on the conversion of a covalent BP-53-IGF-I complex of approximately 60K to 150K form in the presence of ALS.
as §1, with “2.0.” for “2.0. The coefficient of variation of the 150K/60K ratio, based on analysis of variance of eight duplicate measurements covering a wide range of values, was 3.2%.”

binding result [1] | 150K/60K ratio [2] | Binder
no binding (tested: 0.8 µg/mL) |  | B1
 | ~1 | B2
